According to CN114621348A (SHENZHEN SHENHI BIOMEDICINE CO LTD, dated 2022):
Blank lines part the entries; values can stand above or below the binder they belong to.

How the values were obtained:
磷脂酰肌醇蛋白聚糖3(GPC3) [1] = biological target: T1, 磷脂酰肌醇蛋白聚糖3(GPC3) (UniProt P51654 25-554); test: flow cytometry on HepG2 cells, full-length IgG1
T1 construct: whole, on cells; also called MXR7; OCI-5

磷脂酰肌醇蛋白聚糖3(GPC3) [2] = biological target: T1, 磷脂酰肌醇蛋白聚糖3(GPC3); test: flow cytometry on GPC3-CHO-S cells, full-length IgG1
磷脂酰肌醇蛋白聚糖3(GPC3) [3] = biological target: T1, 磷脂酰肌醇蛋白聚糖3(GPC3); test: flow cytometry on HuH-7 cells, full-length IgG1
磷脂酰肌醇蛋白聚糖3(GPC3) [4] = biological target: T1, 磷脂酰肌醇蛋白聚糖3(GPC3); test: flow cytometry on HepG2 cells
磷脂酰肌醇蛋白聚糖3(GPC3) [5] = biological target: T1, 磷脂酰肌醇蛋白聚糖3(GPC3); test: flow cytometry on HuH-7 cells
磷脂酰肌醇蛋白聚糖3(GPC3) [6] = biological target: T1, 磷脂酰肌醇蛋白聚糖3(GPC3); test: flow cytometry on GPC3-CHO-S cells

T1 sequence (P51654 25-554 limits assumed, form in doubt): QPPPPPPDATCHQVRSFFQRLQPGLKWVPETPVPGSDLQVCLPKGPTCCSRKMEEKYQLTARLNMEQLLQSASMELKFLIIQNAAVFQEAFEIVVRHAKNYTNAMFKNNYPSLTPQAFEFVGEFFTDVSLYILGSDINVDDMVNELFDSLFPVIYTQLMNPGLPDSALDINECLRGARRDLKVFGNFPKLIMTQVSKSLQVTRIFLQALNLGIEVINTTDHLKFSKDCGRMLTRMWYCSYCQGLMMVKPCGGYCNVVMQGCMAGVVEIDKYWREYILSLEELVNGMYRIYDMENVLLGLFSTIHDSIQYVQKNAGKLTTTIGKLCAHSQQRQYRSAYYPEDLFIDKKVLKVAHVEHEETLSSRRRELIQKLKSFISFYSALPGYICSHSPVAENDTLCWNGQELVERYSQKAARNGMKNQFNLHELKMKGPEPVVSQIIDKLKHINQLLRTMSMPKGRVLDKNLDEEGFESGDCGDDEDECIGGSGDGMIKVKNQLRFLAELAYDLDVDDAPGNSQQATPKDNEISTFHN

B1: D48 (antibody, V domains shown)
VH: EVQLLESGGGLVQPGESLRLSCEASGLTFSSYPMAWVRQAPGKGLEWVSVIYSDGSKKFYADSVKGRFTISRHNSKNTLYLQMNSLRAEDTAVYYCARGISSSGFDYWGQGTLVTVSS
VL: DIQLTQSPSSLSASVGDRVTITCRASQGISSWLAWYQQKPGKAPKLLIYAASSLQSGVPSRFSGSGSGTDFTLTISSLQPEDFATYYCQQGNSFPLTFGGGTKVEIK
notes: also called 克隆D48
EC50 (磷脂酰肌醇蛋白聚糖3(GPC3) [1]): 11.6 µg/mL
EC50 (磷脂酰肌醇蛋白聚糖3(GPC3) [2]): 0.0968 µg/mL

B2: D47 (antibody, V domains shown)
VH: EVQLLESGGGLVKPGGSLRLSCAASGFTFSSYSMNWVRQAPGKGLEWVSSISSSSSYIYYADSVKGRFTISRDNAKNSLYLQMNSLRAEDTAVYYCARGAARFDYWGQGTMVTVSS
VL: NIQLTQSPSSVSASVGDRVTITCRASQGIWRWLAWYQHKPGKAPKLLISAASNLQSGVPSRFSGSGSGTDFTLTISSLQPEDVATYYCQQANSFPSLTFGGGTKVDIR
notes: also called 克隆D47
EC50 (磷脂酰肌醇蛋白聚糖3(GPC3) [3]): 0.0228 µg/mL

B3: D36 (antibody, V domains shown)
VH: EVQLLESGGGLVKPGGSLRLSCAASGFTFSSYSMNWVRQAPGKGLEWVSSISSSSSYIYYADSVKGRFTISRDNAKNSLYLQMNSLRAEDTAVYYCARETTDGGMDVWGQGTLVTVSS
VL: DIQMTQSPSSVSASVGDRVTITCRASQDIGKYLNWYQQKAGKAPNLLIYDASNLKTGVSSRFSGSGSGTEFTFTISSLQPEDIATYFCQQFDDFPYTFGPGTKVGIR
notes: also called 克隆D36
EC50 (磷脂酰肌醇蛋白聚糖3(GPC3) [2]): 0.0394 µg/mL

B6: D35 (antibody, V domains shown)
VH: EVQLVESGGGVVKPGGSLRLSCAASGFIFSDSYMTWLRQAPGKGLEWVSYISGSASDIKYADSVKGRFTISRDNAKNSLYLQMNSLRVEDTAVYYCARDPRLAGIWGQGTTVTVSS
VL: DIQLTQSPSTLSASIGDRVTITCRASQRVSSRLAWYQQKPGKAPKLLIYKTSNLEAEVPSRFSGSGSGTEFTLTISSLQPDDFATYYCQQYHSYPLTFGGGTKVEIK
notes: also called 克隆D35
EC50 (磷脂酰肌醇蛋白聚糖3(GPC3) [1]): 7.94 µg/mL
EC50 (磷脂酰肌醇蛋白聚糖3(GPC3) [2]): 0.0316 µg/mL

B8: D5 (antibody, V domains shown)
VH: EVQLLESGGGVVQPGRSLRLSCAASGFTFSSYAMHWVRQAPGKGLEWVAVISYDGSNKYYADSVKGRFTISRDNSKNTLYLQMNSLRAEDTAVYYCARQYSSSSPFDYWGQGTLVTVSS
VL: NIQLTQSPSTLSASVGDRITITCRASQSISRWLAWYQQKPGKAPKVLIYKASNLENGVPSRFSGSGSGTEFTLTISSLQPDDSATYYCQQHSYSSPWRFGQGTKVEIK
notes: also called 克隆D5
EC50 (磷脂酰肌醇蛋白聚糖3(GPC3) [3]): 9.62 µg/mL
EC50 (磷脂酰肌醇蛋白聚糖3(GPC3) [2]): 0.0664 µg/mL

B9: D42 (antibody, V domains shown)
VH: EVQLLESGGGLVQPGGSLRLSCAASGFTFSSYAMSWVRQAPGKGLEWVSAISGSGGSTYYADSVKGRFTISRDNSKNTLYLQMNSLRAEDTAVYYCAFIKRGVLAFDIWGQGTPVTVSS
VL: DIQLTQSPSSVSASVGDRVVITCRASQSLGNWLAWYQQKPGKAPNLLIYGASTLQTGVPSRFSGFHSGGEYTLSISNLQPEDAATYYCQQASSIPLTFGGGTKVEIK
notes: also called 克隆D42
EC50 (磷脂酰肌醇蛋白聚糖3(GPC3) [1]): 18.3 µg/mL

Next, values leading:

EC50 (磷脂酰肌醇蛋白聚糖3(GPC3) [3]): 6.21 µg/mL
EC50 (磷脂酰肌醇蛋白聚糖3(GPC3) [2]): 0.0314 µg/mL
B4: D37 (antibody, V domains shown)
VH: QVQLLESGGGLVQPGGSLRLSCAASGFTFSSYAMNWVRQAPGKGLEWVSTISGSGGSTYYADSVKGRFTISRDNSKNTLYLQMNSLRAEDTAVYYCARGSWGAFDIWGQGTPVTVSS
VL: DIQLTQSPSSLSASVGDRVTITCQASQGISNYVNWYQQKPGKAPELLISDAYNLEAGVPSTFSGSGSGTQFTFTISSLQPEHIGTYYCQQFETIPWTFGQGTKIEVK
notes: also called 克隆D37

EC50 (磷脂酰肌醇蛋白聚糖3(GPC3) [1]): 83.9 µg/mL
EC50 (磷脂酰肌醇蛋白聚糖3(GPC3) [3]): 45.1 µg/mL
EC50 (磷脂酰肌醇蛋白聚糖3(GPC3) [2]): 0.0394 µg/mL
B5: D38 (antibody, V domains shown)
VH: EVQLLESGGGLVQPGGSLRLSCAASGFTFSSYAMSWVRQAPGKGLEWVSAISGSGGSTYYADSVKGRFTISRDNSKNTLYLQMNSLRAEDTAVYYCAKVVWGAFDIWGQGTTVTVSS
VL: NIQMTQSPSSLSASVGDRVTISCQASQDISNYVNWYQQRPGKAPKLLMYDASNLEVGVPVRFRGSGSGTEFTFTILSLQPEDLGTYYCQQYDSLPFTFGQGTKLDLK
notes: also called 克隆D38

EC50 (磷脂酰肌醇蛋白聚糖3(GPC3) [4]): 0.172 µg/mL
EC50 (磷脂酰肌醇蛋白聚糖3(GPC3) [5]): 0.191 µg/mL
EC50 (磷脂酰肌醇蛋白聚糖3(GPC3) [6]): 0.184 µg/mL
B7: Codrituzumab (antibody, human IgG1, kappa, V domains shown)
VH: QVQLVQSGAEVKKPGASVKVSCKASGYTFTDYEMHWVRQAPGQGLEWMGALDPKTGDTAYSQKFKGRVTLTADKSTSTAYMELSSLTSEDTAVYYCTRFYSYTYWGQGTLVTVSS
VL: DVVMTQSPLSLPVTPGEPASISCRSSQSLVHSNRNTYLHWYLQKPGQSPQLLIYKVSNRFSGVPDRFSGSGSGTDFTLKISRVEAEDVGVYYCSQNTHVPPTFGQGTKLEIKR
notes: also called GC33; GPC3阳性抗体
